Source: the supplement of paper PMC9732359
± gives the uncertainty stated by the source.

Assay: protein stability index of a GFP-peptide fusion (yeast GPS) (PSI 1-4); higher = more stable; sorted into four equal gates, so the index is relative within each strain
Details: pdr5∆
How it was run: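 Tiled 17-residue peptides from yeast proteins were fused downstream of GFP on a plasmid that also expresses Cherry, and the pooled library was carried in yeast. Mid-log cultures grown in leucine-free medium were sorted into four equal gates by GFP/Cherry fluorescence ratio. Plasmids from each gate were PCR-amplified and Illumina-sequenced, and reads were assigned to strains by barcodes. Each peptide's protein stability index is the sum, over gates, of the gate's read frequency multiplied by its gate number.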

Row | Sequence | protein stability index
1 | VGKDTPFTIYDGEAVAK [PRE5] | 3 ± 0.064
2 | VGSVTYQVDEDVKSSLS [YJL039C/NUP192] | 3.2 ± 0.13
3 | VHCRISCQIAQPYEDRP [RRP45] | 2.12 ± 0.12
4 | VHDIFSKIFNESFPDDI [CDC53] | 2.91 ± 0.065
5 | VHGKAPMLMANNDVFTI [SSN3] | 2.47 ± 0.07

Same assay, conditions: san1∆

Row | Sequence | protein stability index
6 | TNVSKQNDFLFSVGESL [ECM29] | 2.94 ± 0.1
7 | TPAAATSPIDIREKVAK [SNF2] | 2.63 ± 0.11
8 | TPAFGSNNTGNTAFGNS [YJL041W/NSP1] | 3.28 ± 0.067
9 | TPANTNNSTSNANTVFS [SWI1] | 2.66 ± 0.04
10 | TPISNEQTEGEPKKKRG [SRP68] | 3.27 ± 0.11
11 | TPKVVRSQDQENPAFLP [SEC65] | 2.16 ± 0.063
12 | TPNMVNSEISNLPKDKS [SSN2] | 2.69 ± 0.087
13 | TPRDRRKSVFAPLNFNP [SSN2] | 2.95 ± 0.081
14 | TPSSNSNSSELEPDYQA [MED1] | 3.35 ± 0.055
15 | TPTDVIGVVSLTNGVTE [RRP6] | 3.03 ± 0.098
16 | TPVQPDLSVTPQKSSSK [YAR002W/NUP60] | 3.057 ± 0.026
17 | TQAKKLYHHTTKTILSG [SRP72] | 2.49 ± 0.098
18 | TQHKVTQYKAGKASLFA [RPL42A] | 2.99 ± 0.059
19 | TQLQRGGTSDMNYLLDN [CSI1] | 3.2 ± 0.078
20 | TQSGGVRPFGVSTLIAG [PRE6] | 1.75 ± 0.17
21 | TQTSKEQEIENNGLPMK [ITC1] | 2.87 ± 0.1
22 | TREDVSPHYNSQKQTLI [SSN3] | 2.15 ± 0.048
23 | TRGPFHFRAPSRILYKA [RPL16B] | 2.08 ± 0.068
24 | TRINGLNSNNSIIGNKN [REC8] | 3.21 ± 0.048
25 | TRLWGSVYYHKGNFRTK [SNU114] | 3.35 ± 0.06
26 | TRQFEGRSNEIVKTTTK [PRP8] | 2.89 ± 0.055
27 | TRSAKKMVIAELLPHYP [YJR042W/NUP85] | 2.89 ± 0.052
28 | TRSNPPFKRKMLLVDII [REC8] | 2.14 ± 0.16
29 | TRVHQLMLEDAVTEREV [MCD1] | 2.36 ± 0.23
30 | TRYNRDYMLSMANIPER [SNU114] | 2.62 ± 0.1

Row | Sequence | protein stability index
31 | TSAGIMDHEEARRKHVS [RPS22A] | 2.87 ± 0.24
32 | TSCTIPKAVVDHINGSG [GAL11] | 1.24 ± 0.12
33 | TSGEAAALGMGLCMLGT [RPN2] | 3.08 ± 0.12
34 | TSIHSTISILAAPSGNY [RRP43] | 1.97 ± 0.05
35 | TSLLNKVLKSGSGVDSS [RRP42] | 2.6 ± 0.13
36 | TSLLYLSTLEPSTSITL [RPN9] | 1.91 ± 0.089
37 | TSSKSSSLSAIIVFGYP [YDL088C/ASM4] | 2.71 ± 0.072
38 | TSSNIVLETHESGIKPY [RPT6] | 2.68 ± 0.099
39 | TSSQKEPFFLVTKITDM [SRB8] | 2.52 ± 0.054
40 | TTAEPKAKRAKTGSAST [TAF14] | 3.34 ± 0.053
41 | TTESSDLKEGLQDLSRY [GRR1] | 3.33 ± 0.052
42 | TTKLAFLVEYEGQENNY [SIR4] | 2.4 ± 0.1
43 | TTLTIMRILPRETDPLV [RPT4] | 2.73 ± 0.064
44 | TTSEKQEVTNEAPFLTS [GAL11] | 3.14 ± 0.11
45 | TVIKFRAGVCEYNEDSR [RPN13] | 1.8 ± 0.13
46 | TVLADEFIAHRLGLIPL [RPB3] | 2.96 ± 0.047
47 | TVLESLGRLNKLRKIAI [LIN1] | 2.66 ± 0.058
48 | TVMYQRRSKMNPLWNAI [PRE4] | 2.66 ± 0.089
49 | TVTDDARIFEFPKTTVA [RPL18A] | 2.7 ± 0.061
50 | TVVISQKKVPDKLLDPT [SCL1] | 3.23 ± 0.064
51 | TWEECVFFDDDPLYDIT [REC8] | 2.95 ± 0.06
52 | TYAAEIAHNISAKNRVV [RPL32] | 2.28 ± 0.068
53 | TYKYFEVILVDPQHKAI [RPL15A] | 2.5 ± 0.15
54 | TYVITKNGKIYLKHNSI [RET1] | 2.45 ± 0.067
55 | TYVLNTWTNSKIFIKDP [YML103C/NUP188] | 2.3 ± 0.058

Row | Sequence | protein stability index
56 | VAARGLDIPNVSLVVNF [PRP28] | 2.04 ± 0.12
57 | VADAKQLGEWAGLGKID [RPS12] | 3.46 ± 0.24
58 | VAFDNINTHIETLAYNS [SNF2] | 2.5 ± 0.063
59 | VAGLEDKFRKACSSSGR [SIR3] | 2.98 ± 0.18
60 | VAHSSRLANLIDYKLRV [SMB1] | 2.5 ± 0.2
61 | VALTGLLIRSKTEDPKG [YML031W/NDC1] | 1.73 ± 0.052
62 | VANSTKAAFIRVNGSEF [RPT3] | 1.66 ± 0.082
63 | VANYSAMANAPGNNIPY [GAL11] | 2.7 ± 0.17
64 | VAPVSEIVNMVPSHVPQ [SIR2] | 2.66 ± 0.06
65 | VARFLHFNGIRRLDALV [ITC1] | 3.41 ± 0.058
66 | VASSTNFTSPTAVVNNA [SWI1] | 2.48 ± 0.14
67 | VCLMQISTRERDYLVDT [RRP6] | 3.49 ± 0.088
68 | VCQVTKFGLLLQVSAQE [ECM29] | 2.62 ± 0.067
69 | VDAGIALNSMCASIPIA [RRP46] | 1.71 ± 0.15
70 | VDEELGPSIYKTDPAGY [SCL1] | 3.29 ± 0.072
71 | VDFDGLDIKRVGSENVE [SNF12] | 3.49 ± 0.24
72 | VDFSKYNTNFNLLLREL [SRP72] | 2.97 ± 0.1
73 | VDIKGEDLHEKNDSAEV [NUT1] | 2.93 ± 0.19
74 | VDIYSLPLISTDVLEIS [YMR129W/POM152] | 2.43 ± 0.045
75 | VDIYTHFTSPIRRYCDV [DIS3] | 1.94 ± 0.073
76 | VDKNFDKLELYVLRNVL [MTW1] | 2.81 ± 0.12
77 | VDLEEVMDTIQEQITLY [SSN8] | 3.16 ± 0.079
78 | VDPARRQILFKYPMYMQ [MED6] | 1.95 ± 0.17
79 | VDPASAPNHSPEIDNLD [RRP6] | 3.25 ± 0.072
80 | VDPLKSLEDKILRMGAF [RRI1] | 2.88 ± 0.12

Row | Sequence | protein stability index
81 | VDQNPLTMHKIIQLILW [SRB8] | 1.23 ± 0.17
82 | VDSNLPDDEKFTDENTI [RPC40] | 2.02 ± 0.19
83 | VDSQGLPYNWDALEMQW [ARP7] | 2.64 ± 0.1
84 | VEAIRRSNQYQRGKMHG [NUT2] | 2.83 ± 0.11
85 | VECAQHCIDYLRKNKLG [SMC4] | 1.62 ± 0.1
86 | VEEAHDFNMKLAINAKT [RPB2] | 3.08 ± 0.064
87 | VEESSEKKQKTESQDVE [DPB4] | 3.23 ± 0.13
88 | VELIESKINELSYYVEE [SMC4] | 3.28 ± 0.1
89 | VELPYGAHGYSGFYTFS [PRE1] | 2.9 ± 0.13
90 | VESVCQKLDILVAKLKK [SMC4] | 2.24 ± 0.087
91 | VEVIKQLSLDASKTNLR [GAL11] | 3.24 ± 0.077
92 | VEYKLTFVPTNSDKPRD [DIS3] | 1.19 ± 0.24
93 | VFLLLQAYFSRLELPVD [BRR2] | 1.26 ± 0.089
94 | VFLLTTRAGGLGINLVT [ISW2] | 1.56 ± 0.13
95 | VFSHAQTAVTCESCSTI [RPS27A] | 1.16 ± 0.13
96 | VFVDGEANWPLPVNIRR [RPO21] | 3.12 ± 0.13
97 | VGDEFKGYVFKISGGND [RPS6A] | 3.06 ± 0.15
98 | VGFWKDDGDDEDLLECL [MTR3] | 3.5 ± 0.22
99 | VGKDTPFTIYDGEAVAK [PRE5] | 3.14 ± 0.088
100 | VGSVTYQVDEDVKSSLS [YJL039C/NUP192] | 3.29 ± 0.062
101 | VHCRISCQIAQPYEDRP [RRP45] | 1.52 ± 0.22
102 | VHDIFSKIFNESFPDDI [CDC53] | 2.87 ± 0.059
